Measurements: IntAct's records for PubMed 19129478

B1: Neutrophil cytosol factor 1 (Homo sapiens), P14598 (parent)
chain: MGDTFIRHIALLGFEKRFVPSQHYVYMFLVKWQDLSEKVVYRRFTEIYEFHKTLKEMFPIEAGAINPENRIIPHLPAPKWFDGQRAAENRQGTLTEYCSTLMSLPTKISRCPHLLDFFKVRPDDLKLPTDNQTKKPETYLMPKDGKSTATDITGPIILQTYRAIANYEKTSGSEMALSTGDVVEVVEKSESGWWFCQMKAKRGWIPASFLEPLDSPDETEDPEPNYAGEPYVAIKAYTAVEGDEVSLLEGEAVEVIHKLLDGWWVIRKDDVTGYFPSMYLQKSGQDVSQAQRQIKRGAPPRRSSIRNAHSIHQRSRKRLSQDAYRRNSVRFLQQRRRQARPGPQSPGSPLEEERQTQRSKPQPAVPPRPSADLILNRCSESTKRKLASAV

Variants of: B1
Details: with ncf2_human NCF2, P19878
ncf2_human NCF2, P19878, sequence (P19878 whole entry): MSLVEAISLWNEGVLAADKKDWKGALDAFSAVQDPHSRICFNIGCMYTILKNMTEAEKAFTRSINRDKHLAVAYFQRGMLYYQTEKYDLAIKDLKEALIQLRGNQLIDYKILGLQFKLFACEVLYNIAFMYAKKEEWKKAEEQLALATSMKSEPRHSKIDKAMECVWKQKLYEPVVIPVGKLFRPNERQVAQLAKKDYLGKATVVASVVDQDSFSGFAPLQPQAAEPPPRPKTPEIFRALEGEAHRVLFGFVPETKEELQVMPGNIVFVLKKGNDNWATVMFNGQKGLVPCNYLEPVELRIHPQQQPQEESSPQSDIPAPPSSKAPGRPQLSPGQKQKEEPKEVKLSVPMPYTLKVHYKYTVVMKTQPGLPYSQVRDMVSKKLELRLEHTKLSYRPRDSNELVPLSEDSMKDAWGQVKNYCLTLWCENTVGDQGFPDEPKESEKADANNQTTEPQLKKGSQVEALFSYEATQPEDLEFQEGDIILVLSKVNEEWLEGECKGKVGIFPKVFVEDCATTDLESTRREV

Row | Variant | effect of a mutation on the interaction
1 | MGDTFIRHIALLGFEKRFVPSQHYVYMFLVKWQDLSEKVVYRRFTEIYEFHKTLKEMFPIEAGAINPENRIIPHLPAPKWFDGQRAAENRQGTLTEYCSTLMSLPTKISRCPHLLDFFKVRPDDLKLPTDNQTKKPETYLMPKDGKSTATDITGPIILQTYRAIANYEKTSGSEMALSTGDVVEVVEKSESGWWFCQMKAKRGWIPASFLEPLDSPDETEDPEPNYAGEPYVAIKAYTAVEGDEVSLLEGEAVEVIHKLLDGWWVIRKDDVTGYFPSMYLQKSGQDVSQAQRQIKRGAPPRRSSIRNAHSIHQRSRKRLSQDAYRRNSVRFLQQRRRQARPGPQSPGSPLEEERQTQRSKPQAAVPPRPSADLILNRCSESTKRKLASAV [P363A] | decreasing interaction
2 | MGDTFIRHIALLGFEKRFVPSQHYVYMFLVKWQDLSEKVVYRRFTEIYEFHKTLKEMFPIEAGAINPENRIIPHLPAPKWFDGQRAAENRQGTLTEYCSTLMSLPTKISRCPHLLDFFKVRPDDLKLPTDNQTKKPETYLMPKDGKSTATDITGPIILQTYRAIANYEKTSGSEMALSTGDVVEVVEKSESGWWFCQMKAKRGWIPASFLEPLDSPDETEDPEPNYAGEPYVAIKAYTAVEGDEVSLLEGEAVEVIHKLLDGWWVIRKDDVTGYFPSMYLQKSGQDVSQAQRQIKRGAPPRRSSIRNAHSIHQRSRKRLSQDAYRRNSVRFLQQRRRQARPGPQSPGSPLEEERQTQRSKPQPAVAPRPSADLILNRCSESTKRKLASAV [P366A] | disrupting interaction
3 | MGDTFIRHIALLGFEKRFVPSQHYVYMFLVKWQDLSEKVVYRRFTEIYEFHKTLKEMFPIEAGAINPENRIIPHLPAPKWFDGQRAAENRQGTLTEYCSTLMSLPTKISRCPHLLDFFKVRPDDLKLPTDNQTKKPETYLMPKDGKSTATDITGPIILQTYRAIANYEKTSGSEMALSTGDVVEVVEKSESGWWFCQMKAKRGWIPASFLEPLDSPDETEDPEPNYAGEPYVAIKAYTAVEGDEVSLLEGEAVEVIHKLLDGWWVIRKDDVTGYFPSMYLQKSGQDVSQAQRQIKRGAPPRRSSIRNAHSIHQRSRKRLSQDAYRRNSVRFLQQRRRQARPGPQSPGSPLEEERQTQRSKPQPAVPPAPSADLILNRCSESTKRKLASAV [R368A] | decreasing interaction
4 | MGDTFIRHIALLGFEKRFVPSQHYVYMFLVKWQDLSEKVVYRRFTEIYEFHKTLKEMFPIEAGAINPENRIIPHLPAPKWFDGQRAAENRQGTLTEYCSTLMSLPTKISRCPHLLDFFKVRPDDLKLPTDNQTKKPETYLMPKDGKSTATDITGPIILQTYRAIANYEKTSGSEMALSTGDVVEVVEKSESGWWFCQMKAKRGWIPASFLEPLDSPDETEDPEPNYAGEPYVAIKAYTAVEGDEVSLLEGEAVEVIHKLLDGWWVIRKDDVTGYFPSMYLQKSGQDVSQAQRQIKRGAPPRRSSIRNAHSIHQRSRKRLSQDAYRRNSVRFLQQRRRQARPGPQSPGSPLEEERQTQRSKPQPAVPPRPSADLILNRCSESTERKLASAV [K383E] | decreasing interaction
5 | MGDTFIRHIALLGFEKRFVPSQHYVYMFLVKWQDLSEKVVYRRFTEIYEFHKTLKEMFPIEAGAINPENRIIPHLPAPKWFDGQRAAENRQGTLTEYCSTLMSLPTKISRCPHLLDFFKVRPDDLKLPTDNQTKKPETYLMPKDGKSTATDITGPIILQTYRAIANYEKTSGSEMALSTGDVVEVVEKSESGWWFCQMKAKRGWIPASFLEPLDSPDETEDPEPNYAGEPYVAIKAYTAVEGDEVSLLEGEAVEVIHKLLDGWWVIRKDDVTGYFPSMYLQKSGQDVSQAQRQIKRGAPPRRSSIRNAHSIHQRSRKRLSQDAYRRNSVRFLQQRRRQARPGPQSPGSPLEEERQTQRSKPQPAVPPRPSADLILNRCSESTKRELASAV [K385E] | decreasing interaction
